For one molecule, fold increase of ratio over parental SEQ ID NO: 6 and ratio binding signal/HTRF signal results are on record in patent US20160136262A1.

Experiment [1] deals with T1, H1-mini2-cluster1+5+6-GCN4 without leader sequence and with FLAG-thrombin-foldon-HIS. Kind of experiment: ELISA/HTRF, HEK293F; average. To be noted: remark: other sources report otherwise.
For experiment [2], the target named is T1, H1-mini2-cluster1+5+6-GCN4 without …. Kind of experiment: ELISA/HTRF, P. pastoris; average. To be noted: remark: other sources report otherwise. A general note: An ELISA detects its analyte on a solid surface through an enzyme-linked reagent.

B1: CR6261 (antibody, V domains shown)
VH: EVQLVESGAEVKKPGSSVKVSCKASGGPFRSYAISWVRQAPGQGPEWMGGIIPIFGTTKYAPKFQGRVTITADDFAGTVYMELSSLRSEDTAMYYCAKHMGYQVRETMDVWGKGTTVTVSS
VL: QSVLTQPPSVSAAPGQKVTISCSGSSSNIGNDYVSWYQQLPGTAPKLLIYDNNKRPSGIPDRFSGSKSGTSATLGITGLQTGDEANYYCATWDRRPTAYVVFGGGTKLTVLG
As to B1, in experiment [1], the fold increase of ratio over parental SEQ ID NO: 6 worked out at 1 fold and the ratio binding signal/HTRF signal was 17.4. In experiment [2], the fold increase of ratio over parental SEQ ID NO: 6 came to 1 fold and the ratio binding signal/HTRF signal is 5.94.
